Measured values published in paper PMC3035937 (Journal of molecular biology, 2010).

B3: purified SpHst4 (SpHst4-His) (natural protein, S. pombe, UniProt Q9UR39 1-415, looked up)
chain: MKVEEHVPLIQESRKRKCQSSENASKRQQLLSKLPLRLHTGNENVDLSPLVSAIRKAKRIVVVTGAGISCDAGIPDFRSSEGLFSSLRAEYKLNCSGKELFDGSVYRDLKSVNIFHAMIRKLHMLSNNARPTDFHLFLSQLAQESKLLRLYTQNIDFLETRLEGLQTCIPLPQSAPWPTTIPLHGTLEVVSCTRCSFLKKFNPDIFDRNGVTVCPDCKTENEVRRIAGKRSVIEGCLRPRIVLYNEIHPDSESIGSVCSQDLKSRPDCLIVAGTSCKIPGVKRIIKEMSNCVHKQKGNVIWLNYDEPTKDFLNLCDLVVQGDLQIAIRRLKPLLDAPSWKLKSHSAKRTSKQKSSEQTKITSSTKITKAIGLNTKSNDSSKKDNTSFQLHQVLNSIEIPKVEIKQEVEYATPSPL

How the values were obtained:
[1] = target: B3; test: pull-down
[2] = target: T1, GST-SpRad9 (S. pombe, UniProt P26306 1-426); test: pull-down
T1 sequence (looked up): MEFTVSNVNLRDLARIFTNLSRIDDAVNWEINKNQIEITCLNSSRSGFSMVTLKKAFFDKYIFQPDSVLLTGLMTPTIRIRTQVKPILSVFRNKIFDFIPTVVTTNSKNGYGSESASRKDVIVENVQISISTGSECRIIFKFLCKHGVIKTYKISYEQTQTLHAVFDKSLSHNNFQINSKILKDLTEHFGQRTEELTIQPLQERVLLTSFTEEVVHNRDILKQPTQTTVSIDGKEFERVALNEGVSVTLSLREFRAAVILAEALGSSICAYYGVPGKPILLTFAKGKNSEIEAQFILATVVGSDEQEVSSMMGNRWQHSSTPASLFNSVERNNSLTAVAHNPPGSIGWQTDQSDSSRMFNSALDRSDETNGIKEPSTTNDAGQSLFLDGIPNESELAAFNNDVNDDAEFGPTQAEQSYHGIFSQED

B1: GST-SpHus1 (natural protein, S. pombe, UniProt P78955 1-287, looked up)
chain: MRFKTRISNLYTLTRLVQALDKIGRFCWLRLMPETVNFVIVPDFRMTQVWSVLEVETIFEDYVVQSNADNVINLEVPIDNFYKALRSAANASDSTVRLSKKNNQPLLSLSTTWSGRAFGSNIVTHNIPVRVLSQSYVSVIKEPTAPEPDCHIFLPQLNFLRHVVDKYKSLSDRIIMSANMSGELQLSVNIPSARVSTKWKGLENPELDPSQVEDISRHPSQTRAPEEFVHMRLDSKDLVNMLKISSVAKRVIACFCEGHALVLYVYITDPEDEHTAVLTYYISTYVD
B1: binds [1].

B2: GST-SpRad1 (natural protein, S. pombe, UniProt P22193 1-323, looked up)
chain: MFQAETVCLKQIQSTLRCIDFSKECTIEITSRGLRFAVEESQSLQAHAFLDKSLFQTFNFQGDSDGDTYMFQTMISPLLQSLSIYTDGKERISTSAWDQPTVNIMHKRGVICKVQYNGPGCPFIWEVEEMAGYATACELLTMECEDDVDINRLASTLCTKIIMKSNWLYDALVELDNNMGENLIIHTSSQKSTFLLRCVGALSTTEIEYPNEKSVLESFETDSENTYSYRFSLIRHALKALQVGSKVNLRIDENGTLSIQIMLVGQEGLCTFVDFCIVPLDLVSEDEEEDEEEEPAESNQSDNNVLRNDPNYRGDAETEDEDS
B2: binds [1].

B3: binds [2].
